The supplement of paper PMC9112550, “Optimization of the antimicrobial peptide Bac7 by deep mutational scanning” (BMC Biology, 2022)

The sequences below were run on Escherichia coli TOP10 (assay: shrunken log2 fold change of peptide-encoding DNA abundance (4.5 h post-induction vs induction); higher = less antimicrobial activity (less host growth inhibition)). Conditions: time post-induction: 4.5 h; library: site-saturation at positions 5, 18, 19, 20.
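Further: peptides expressed intracellularly from a pBAD plasmid library in pooled LB shake-flask culture, induced with 0.3% L-arabinose, DNA abundance read by NGS, three biological replicates, DESeq2 with apeglm shrinkage.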

Sequence	shrunken log2 fold change
RRIRWRPPRLPRPRPRPFMRPRP	0.276
RRIRDRPPRLPRPRPRPPGRPRP	0.104
RRIRHRPPRLPRPRPRPGNPPRP	0.0424
RRIRDRPPRLPRPRPRPGNYPRP	-0.0159
RRIRDRPPRLPRPRPRPIQGPRP	0.00911
RRIRRRPPRLPRPRPRPDTSPRP	0.0612
RRIRRRPPRLPRPRPRPYLMPRP	-0.146
RRIRLRPPRLPRPRPRPHIYPRP	-0.297
RRIRERPPRLPRPRPRPGNLPRP	-0.17
RRIRTRPPRLPRPRPRPICEPRP	0.0143
RRIRHRPPRLPRPRPRPHAFPRP	-0.0301
RRIRNRPPRLPRPRPRPKGWPRP	0.439
RRIRTRPPRLPRPRPRPMQWPRP	0.0688
RRIRNRPPRLPRPRPRPSNKPRP	-0.259
RRIRVRPPRLPRPRPRPEGGPRP	0.747
RRIRGRPPRLPRPRPRPVFLPRP	-0.0506
RRIRPRPPRLPRPRPRPLLQPRP	0.16
RRIRHRPPRLPRPRPRPYEYPRP	-0.4
RRIRKRPPRLPRPRPRPIFLPRP	0.0688
RRIRHRPPRLPRPRPRPVMAPRP	-0.27
RRIRKRPPRLPRPRPRPFMCPRP	0.0653
RRIRLRPPRLPRPRPRPECAPRP	0.65

Sequence	shrunken log2 fold change
RRIRARPPRLPRPRPRPPHWPRP	1.08
RRIRYRPPRLPRPRPRPGIPPRP	-0.193
RRIRCRPPRLPRPRPRPEHWPRP	0.118
RRIRWRPPRLPRPRPRPSGVPRP	-0.158
RRIRNRPPRLPRPRPRPAEKPRP	0.0519
RRIRMRPPRLPRPRPRPWSFPRP	-0.33
RRIRKRPPRLPRPRPRPVEFPRP	0.192
RRIRQRPPRLPRPRPRPQRAPRP	0.224
RRIRHRPPRLPRPRPRPMIPPRP	0.132
RRIRARPPRLPRPRPRPWEIPRP	-0.0378
RRIRIRPPRLPRPRPRPSKNPRP	-0.76
RRIRQRPPRLPRPRPRPNSTPRP	-0.642
RRIRIRPPRLPRPRPRPGVPPRP	-0.0807
RRIRCRPPRLPRPRPRPQPLPRP	0.19
RRIRVRPPRLPRPRPRPLDQPRP	0.0826
RRIRSRPPRLPRPRPRPCYCPRP	-0.215
RRIRRRPPRLPRPRPRPTMMPRP	0.167
RRIRWRPPRLPRPRPRPYNVPRP	-0.758
RRIRVRPPRLPRPRPRPRWMPRP	-0.0415
RRIRIRPPRLPRPRPRPKMVPRP	-0.159
RRIRKRPPRLPRPRPRPQNCPRP	-0.132
RRIRCRPPRLPRPRPRPREKPRP	1.12

Sequence	shrunken log2 fold change
RRIRMRPPRLPRPRPRPDLMPRP	-0.0157
RRIRIRPPRLPRPRPRPNWGPRP	-0.205
RRIRPRPPRLPRPRPRPGHHPRP	0.0565
RRIRERPPRLPRPRPRPYCHPRP	-0.467
RRIRFRPPRLPRPRPRPWEDPRP	0.0682
RRIRTRPPRLPRPRPRPKFPPRP	-0.0959
RRIRLRPPRLPRPRPRPPTEPRP	0.296
RRIRGRPPRLPRPRPRPEPFPRP	0.218
RRIRGRPPRLPRPRPRPPWKPRP	0.435
RRIRCRPPRLPRPRPRPAWMPRP	-0.0623
RRIRNRPPRLPRPRPRPWTCPRP	0.0493
RRIRTRPPRLPRPRPRPILRPRP	-0.0606
RRIRHRPPRLPRPRPRPATFPRP	-0.662
RRIRNRPPRLPRPRPRPGTDPRP	-0.0425
RRIRCRPPRLPRPRPRPLCFPRP	-0.0241
RRIRTRPPRLPRPRPRPVNMPRP	-0.192
RRIRIRPPRLPRPRPRPHREPRP	-0.0487
RRIRKRPPRLPRPRPRPTDPPRP	0.0238
RRIRGRPPRLPRPRPRPFKEPRP	-0.0428
RRIRWRPPRLPRPRPRPIDDPRP	-0.152
RRIRLRPPRLPRPRPRPSNGPRP	-0.00256
RRIRYRPPRLPRPRPRPIEMPRP	0.0294

Sequence	shrunken log2 fold change
RRIRMRPPRLPRPRPRPMSCPRP	0.0466
RRIRARPPRLPRPRPRPLKCPRP	0.381
RRIRKRPPRLPRPRPRPSLKPRP	-0.0893
RRIRERPPRLPRPRPRPSPMPRP	-0.0654
RRIRLRPPRLPRPRPRPVWPPRP	0.422
RRIRERPPRLPRPRPRPQKAPRP	-0.0836
RRIRIRPPRLPRPRPRPHMLPRP	-0.943
RRIRERPPRLPRPRPRPPQPPRP	0.307
RRIRCRPPRLPRPRPRPDFCPRP	-0.228
RRIRIRPPRLPRPRPRPSNAPRP	-0.0615
RRIRVRPPRLPRPRPRPNLNPRP	-0.342
RRIRYRPPRLPRPRPRPGNTPRP	-1.18
RRIRIRPPRLPRPRPRPEDWPRP	0.0775
RRIRHRPPRLPRPRPRPYSGPRP	-0.151
RRIRERPPRLPRPRPRPIFEPRP	0.0601
RRIRIRPPRLPRPRPRPPLCPRP	0.142
RRIRFRPPRLPRPRPRPTPEPRP	0.189
RRIRPRPPRLPRPRPRPGAGPRP	0.555
RRIRARPPRLPRPRPRPCTCPRP	-0.199
RRIRSRPPRLPRPRPRPMQFPRP	0.0683
RRIRIRPPRLPRPRPRPGTQPRP	-0.0235
RRIRTRPPRLPRPRPRPTMHPRP	0.0843

Sequence	shrunken log2 fold change
RRIRVRPPRLPRPRPRPHQKPRP	0.375
RRIRARPPRLPRPRPRPVSKPRP	0.141
RRIRSRPPRLPRPRPRPDEMPRP	0.435
RRIRHRPPRLPRPRPRPARFPRP	0.358
RRIRDRPPRLPRPRPRPDTLPRP	0.125
RRIRQRPPRLPRPRPRPRNYPRP	0.034
RRIRMRPPRLPRPRPRPFKCPRP	-0.0731
RRIRARPPRLPRPRPRPGLWPRP	1.04
RRIRVRPPRLPRPRPRPSTDPRP	-0.0464
RRIRWRPPRLPRPRPRPYGNPRP	-0.338
RRIRVRPPRLPRPRPRPSMMPRP	-0.888
RRIRWRPPRLPRPRPRPDSEPRP	1.48
RRIRHRPPRLPRPRPRPMSVPRP	-0.294
RRIRMRPPRLPRPRPRPDGMPRP	1.73
RRIRERPPRLPRPRPRPTENPRP	-0.0185
RRIRTRPPRLPRPRPRPSMKPRP	0.00896
RRIRMRPPRLPRPRPRPKWWPRP	0.755
RRIRVRPPRLPRPRPRPSQLPRP	-0.234
RRIRARPPRLPRPRPRPPMAPRP	0.484
RRIRNRPPRLPRPRPRPYSSPRP	-0.027
RRIRERPPRLPRPRPRPYMDPRP	-0.534
